Data as given in patent publication US20150258192A1, “COMPOSITIONS AND METHODS FOR PREVENTING OR TREATING CHRONIC LUNG ALLOGRAFT DYSFUNCTION (CLAD) AND IDIOPATHIC PULMONARY FIBROSIS (IPF)” (priority 2014, published 2015).
No end group written: not given here.

Columns and labels:
Test in all cases: Kinase Profiling Assay
Assay type in all cases: biochemical
Conditions in all cases: peptide 100 μM
ALK4(h) = target: T1, ALK4(h) (Homo sapiens, UniProt P36896)
T1 sequence (P36896 24-505): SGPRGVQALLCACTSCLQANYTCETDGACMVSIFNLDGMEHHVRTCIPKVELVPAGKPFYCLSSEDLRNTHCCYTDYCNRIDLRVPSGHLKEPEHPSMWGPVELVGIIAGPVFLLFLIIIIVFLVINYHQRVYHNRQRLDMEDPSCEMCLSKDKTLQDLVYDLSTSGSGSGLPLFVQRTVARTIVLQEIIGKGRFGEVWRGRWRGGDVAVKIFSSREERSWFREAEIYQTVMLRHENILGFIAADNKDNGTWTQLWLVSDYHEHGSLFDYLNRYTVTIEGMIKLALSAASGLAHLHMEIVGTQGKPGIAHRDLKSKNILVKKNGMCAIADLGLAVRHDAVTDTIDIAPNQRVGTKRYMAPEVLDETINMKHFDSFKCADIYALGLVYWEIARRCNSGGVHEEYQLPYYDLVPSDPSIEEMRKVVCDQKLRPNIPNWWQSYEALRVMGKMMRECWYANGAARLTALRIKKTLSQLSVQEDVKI
In short: (§1)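 Activity remaining relative to an uninhibited control was determined by scintillation counting of labeled substrate bound to a negatively charged filter. Radiolabeled phosphate came from ATP; the substrate carried positive charge. Duplicate measurements, within a 266-kinase human panel.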

MAPKAP-K2(h) = target: T2, MAPKAP-K2(h) (Homo sapiens, UniProt P49137)
T2 construct: purchased Millipore
T2 sequence (P49137 whole entry): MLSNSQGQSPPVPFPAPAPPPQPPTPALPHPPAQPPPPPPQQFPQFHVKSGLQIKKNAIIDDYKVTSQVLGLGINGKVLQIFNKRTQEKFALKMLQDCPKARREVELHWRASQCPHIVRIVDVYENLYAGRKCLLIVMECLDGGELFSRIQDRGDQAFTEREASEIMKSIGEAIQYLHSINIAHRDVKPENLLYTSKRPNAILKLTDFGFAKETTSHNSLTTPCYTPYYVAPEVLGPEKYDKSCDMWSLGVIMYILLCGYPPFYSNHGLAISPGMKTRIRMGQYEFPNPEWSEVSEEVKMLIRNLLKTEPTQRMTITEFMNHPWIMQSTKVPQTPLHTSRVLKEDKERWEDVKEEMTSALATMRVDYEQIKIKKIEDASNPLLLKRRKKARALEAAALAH
In short: as §1

Met(Y1248C)(h) = target: T3, Met(Y1248C)(h) (Homo sapiens, UniProt P08581, Y1230C)
T3 construct: purchased Millipore
In short: as §1

PKG1β(h) = target: T4, PKG1β(h) (Homo sapiens, UniProt Q13976)
T4 sequence (Q13976 1-686 isoform Q13976-2): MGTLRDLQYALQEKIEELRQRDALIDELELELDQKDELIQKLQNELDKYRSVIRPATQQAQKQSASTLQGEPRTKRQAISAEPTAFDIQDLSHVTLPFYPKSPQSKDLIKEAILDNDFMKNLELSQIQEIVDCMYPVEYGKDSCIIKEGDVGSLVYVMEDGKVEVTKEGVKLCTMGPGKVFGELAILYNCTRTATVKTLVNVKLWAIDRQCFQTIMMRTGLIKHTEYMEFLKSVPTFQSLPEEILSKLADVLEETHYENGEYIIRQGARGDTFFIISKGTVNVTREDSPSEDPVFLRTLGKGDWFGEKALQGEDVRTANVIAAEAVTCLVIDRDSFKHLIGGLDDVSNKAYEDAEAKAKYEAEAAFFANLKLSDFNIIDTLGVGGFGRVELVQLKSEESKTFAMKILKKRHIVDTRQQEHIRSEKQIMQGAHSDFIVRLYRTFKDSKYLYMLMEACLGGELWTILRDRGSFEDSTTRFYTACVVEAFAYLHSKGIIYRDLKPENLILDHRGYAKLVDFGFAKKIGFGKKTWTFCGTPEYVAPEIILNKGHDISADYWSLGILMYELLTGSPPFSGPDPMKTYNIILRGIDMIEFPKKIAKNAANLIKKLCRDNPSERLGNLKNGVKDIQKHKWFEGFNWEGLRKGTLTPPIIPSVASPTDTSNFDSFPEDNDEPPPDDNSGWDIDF
In short: as §1

SGK2(h) = target: T5, SGK2(h) (Homo sapiens, UniProt Q9HBY8)
T5 construct: purchased Millipore
T5 sequence (Q9HBY8 1-367): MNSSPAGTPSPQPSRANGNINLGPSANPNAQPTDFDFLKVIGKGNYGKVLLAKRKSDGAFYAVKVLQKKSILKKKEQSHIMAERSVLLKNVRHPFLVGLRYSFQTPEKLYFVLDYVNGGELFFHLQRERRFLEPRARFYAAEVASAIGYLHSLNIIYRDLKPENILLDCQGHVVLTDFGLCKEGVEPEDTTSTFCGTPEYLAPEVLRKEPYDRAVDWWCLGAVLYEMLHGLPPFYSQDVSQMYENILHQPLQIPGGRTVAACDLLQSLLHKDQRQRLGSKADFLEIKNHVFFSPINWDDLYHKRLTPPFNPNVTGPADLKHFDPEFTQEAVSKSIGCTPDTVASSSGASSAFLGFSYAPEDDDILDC
In short: as §1

TAO1(h) = target: T6, TAO1(h) (Homo sapiens, UniProt Q7L7X3)
T6 construct: purchased Millipore
T6 sequence (Q7L7X3 1-1001): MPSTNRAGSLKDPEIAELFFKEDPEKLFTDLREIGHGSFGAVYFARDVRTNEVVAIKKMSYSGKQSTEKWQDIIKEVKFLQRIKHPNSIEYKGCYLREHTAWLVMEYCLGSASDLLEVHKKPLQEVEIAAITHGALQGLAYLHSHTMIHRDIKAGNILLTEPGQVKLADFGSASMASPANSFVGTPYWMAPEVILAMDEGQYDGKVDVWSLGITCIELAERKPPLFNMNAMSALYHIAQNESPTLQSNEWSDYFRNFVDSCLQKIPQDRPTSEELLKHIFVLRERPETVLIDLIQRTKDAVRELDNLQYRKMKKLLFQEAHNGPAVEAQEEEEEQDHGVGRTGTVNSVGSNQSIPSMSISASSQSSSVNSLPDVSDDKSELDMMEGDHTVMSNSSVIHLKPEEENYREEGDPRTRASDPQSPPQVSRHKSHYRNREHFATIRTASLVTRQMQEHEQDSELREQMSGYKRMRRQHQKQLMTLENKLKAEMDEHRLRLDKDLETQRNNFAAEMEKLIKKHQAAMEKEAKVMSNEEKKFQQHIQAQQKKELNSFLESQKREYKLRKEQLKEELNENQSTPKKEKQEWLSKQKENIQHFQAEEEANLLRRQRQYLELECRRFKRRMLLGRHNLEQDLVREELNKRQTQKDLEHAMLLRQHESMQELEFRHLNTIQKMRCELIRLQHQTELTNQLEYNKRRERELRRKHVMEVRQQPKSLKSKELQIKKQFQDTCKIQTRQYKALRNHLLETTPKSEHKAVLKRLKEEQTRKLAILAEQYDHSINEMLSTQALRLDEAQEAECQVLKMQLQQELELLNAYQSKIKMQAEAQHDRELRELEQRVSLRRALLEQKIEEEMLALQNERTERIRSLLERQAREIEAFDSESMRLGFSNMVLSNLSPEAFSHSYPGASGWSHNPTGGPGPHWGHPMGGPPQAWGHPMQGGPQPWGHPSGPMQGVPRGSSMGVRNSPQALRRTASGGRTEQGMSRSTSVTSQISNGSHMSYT
In short: as §1

Question: Which “% activity” value (ALK4(h)) does the source give for FAKLAARLYRKALARQLGVAA [MMI-0300] here?
Answer: Its value is 140%.

Question: And the “% activity” value (MAPKAP-K2(h))?
Answer: Its value is 5%.

Question: And the “% activity” value (Met(Y1248C)(h))?
Answer: The value was 84%.

Question: And the “% activity” value (PKG1β(h))?
Answer: Its value is 50%.

Question: And the “% activity” value (SGK2(h))?
Answer: Its value is 56%.

Question: And the “% activity” value (TAO1(h))?
Answer: The value was 82%.

Question: Which “% activity” value (ALK4(h)) does the source give for “HRRIKAWLKKIKALARQLGVAA (Mammal) [MMI-0500]” here?
Answer: The value was 81%.

Question: What about the “% activity” value (MAPKAP-K2(h)) of the same sequence?
Answer: The value was 9%.

Question: What about the “% activity” value (Met(Y1248C)(h)) of the same sequence?
Answer: The value was 73%.

Question: What about the “% activity” value (PKG1β(h)) of the same sequence?
Answer: Its value is 24%.

Question: And the “% activity” value (SGK2(h))?
Answer: The value was -1%.

Question: And the “% activity” value (TAO1(h))?
Answer: Its value is 24%.

Question: How did the “% activity” value (ALK4(h)) turn out when KAFAKLAARLYRKALARQLGVAA [MMI-0400] was run?
Answer: Its value is 130%.

Question: What about the “% activity” value (MAPKAP-K2(h)) of the same sequence?
Answer: The value was 5%.

Question: And the “% activity” value (Met(Y1248C)(h))?
Answer: Its value is 36%.

Question: And the “% activity” value (PKG1β(h))?
Answer: Its value is 53%.

Question: What about the “% activity” value (SGK2(h)) of the same sequence?
Answer: Its value is 98%.

Question: What about the “% activity” value (TAO1(h)) of the same sequence?
Answer: Its value is 73%.

Question: Which “% activity” value (ALK4(h)) does the source give for YARAAARQARAKALARQLGVAA [MMI-0100] here?
Answer: The value was 124%.

Question: And the “% activity” value (MAPKAP-K2(h))?
Answer: The value was 19%.

Question: And the “% activity” value (Met(Y1248C)(h))?
Answer: Its value is 77%.

Question: What about the “% activity” value (PKG1β(h)) of the same sequence?
Answer: The value was 71%.

Question: What about the “% activity” value (TAO1(h)) of the same sequence?
Answer: The value was 99%.

Question: “YARAAARQARAKALNRQLGVA (Mammal) [MMI-0200]” was tested. Which “% activity” value (ALK4(h)) did it give?
Answer: Its value is 152%.

Question: And the “% activity” value (MAPKAP-K2(h))?
Answer: Its value is 35%.

Question: What about the “% activity” value (Met(Y1248C)(h)) of the same sequence?
Answer: Its value is 141%.

Question: And the “% activity” value (PKG1β(h))?
Answer: Its value is 57%.
